Substrate: Oc1ccc(Cc2nc3c(Cc4ccccc4)nc(-c4ccc(O)cc4)cn3c2O)cc1
Test: luminescence, extrapolated peak intensity, Hill fit
Type: biochemical, Gaussia princeps (in: crustaceans)
Settings: free GLuc 0.05 µM, PBS, O2 as co-substrate, 0.1-30 µM CLZ

B1: Gaussia luciferase (GLuc) (Gaussia princeps (in: crustaceans); M127L/M60L) (protein)
chain: KPTENNEDFNIVAVASNFATTDLDADRGKLPGKKLPLEVLKELEANARKAGCTRGCLICLSHIKCTPKMKKFIPGRCHTYEGDKESAQGGIGEAIVDIPEIPGFKDLEPLEQFIAQVDLCVDCTTGCLKGLANVQCSDLLKKWLPQRCATFASKIQGQVDKIKGAGGD
**Q.** For B1, which K0.5 is on record?
**A.** 9.8 (95% CI [6.2 µM, 43.1 µM]) µM

From PMC12718255, “Quantitative assessment of porin-mediated solute transport in biomimetic membranes” (Applied Microbiology and Biotechnology, 2025)
